Key:
HEK293-F = assay: Luciferase time course under hypoxia, transiently transfected HEK293-F; type: cell-based, human; conditions: hypoxia 5% oxygen, printed order RTV-015, SYNP-HYP-001, RTV-016, HYBT, HV3C
Experimental: The constructs were initially used to drive luciferase expression in HEK293-F and HEK293-T in hypoxia.
40 ml of cells were grown in a 250 ml vented Erlenmeyer flask (Sigma-Aldrich CLS431144) at 37° C., 20% O2, 8% CO2 with agitation at 100 rpm. Cells were seeded as described in the manufacturer's instructions (300,000 cells/ml). HEK293-F were obtained from Thermofisher, R79007.
(§1) One day before transfection, the cells were counted using a haemocytometer and split to 500,000 cells/ml.
On the day of transfection, the cells are seeded to 1,000,000 cells/ml in 500 μl of appropriate medium (Freestyle 293 expression medium, 12338002) in a 24 well plate. […] of DNA per well was then added to 10 μl of OptiMem medium (Thermofisher; 11058021) and incubated for 5 minutes at room temperature.
Concurrently, 0.625 μl of Max reagent (Thermofisher, 16447100) was made up to 10 μl by addition of OptiMem and incubated for 5 minutes at room temperature. After this incubation, both mixes were added to the same tube and incubated at room temperature for 25-30 minutes. […]
After transfection the cells were incubated for 24 hrs in normoxia conditions (20% oxygen) before being switched to a gas mix of 5% oxygen, 10% carbon dioxide and 85% nitrogen (hypoxia). […] Induction of the promoters was assessed by using luciferase activity after 3, 5 and 24 hrs in hypoxia.
(§2) Luciferase activity was measured using LARII (Dual Luciferase Reporter 1000 assay system, Promega, E1980).
Media was removed from the cells at the respective time point (0, 3, 5, 24 hrs after induction). […] 10 μl of supernatant was pipetted into white 96-well plate and luminescence measured by addition of 50 μl of LARII substrate.
β-galactosidase activity was measured as per manufacturer's instructions (Mammalian βGalactosidase Assay Kit, 75707/75710, Thermo Scientific) using 25 μl of lysate. […] The mixture was incubated at 37° C. for 30 min and absorbance measured at 405 nm.
(§3) Luciferase readouts were normalised to β-galactosidase to produce normalised relative luminometer units (RLUs).

HEK293-T = assay: Luciferase expression in normoxia vs 24 h hypoxia, transiently transfected HEK293-T; type: cell-based, human; conditions: for relative rank of promoter strength: 24 h hypoxia vs 24 h normoxia
Experimental: HEK293-T are seeded at a density of 20%. Once they reached a confluence between 60 and 80%, the media is changed with DMEM (#21885-025—Thermo Scientific) supplemented with 10% FBS (Gibco, 26140). After 3 hours, the cells were transfected by a transfection mix. The transfection mix is prepared by adding DNA ([…] per 6 well plate) and PEI 25 kDA (#23966-1—Polyscience) in a ratio of 1:3 in sterile DPBS (#14190169—ThermoFisher Scientific). After mixing, the transfection mix is incubated at room temperature for 30 minutes and then added directly to the cells. After 16 to 18 h post transfection, the media is changed to DMEM+2% FBS. The transfected DNA was one of the vectors where the promoter constructs (RTV-015, HYBT, RTV-016, HV3C) or a control promoter (CMV-IE) were used to drive luciferase expression and β-galactosidase containing pcDNA6 plasmid. The β-galactosidase containing plasmid was used as internal control for transfection efficiency (Thermofisher, V22020).
(§4) After transfection the cells were incubated for 24 hrs in normoxic conditions (20% oxygen). Induction of the promoters was assessed by using luciferase activity after 24 hrs in normoxia or hypoxia (5% oxygen, 10% carbon dioxide and 85% nitrogen). Hypoxia was achieved by gas displacement in a sealed hypoxia chamber.
as §2
Media was removed from the cells at the respective time point (0, 3, 5, 24 hrs after induction). The cells were washed once in 300 μl of DPBS. Cells were lysed by adding 100 μl of passive lysis buffer to the cells and incubation with rocking for 15 minutes. The cell debris was pelleted by centrifugation of the plate at max speed in a benchtop centrifuge for 1 min. 10 μl of supernatant was pipetted into white 96-well plate and luminescence measured by addition of 50 μl of LARII substrate.
β-galactosidase activity was measured as per manufacturer's instructions (Mammalian βGalactosidase Assay Kit, 75707/75710, Thermo Scientific) using 25 μl of lysate. 25 μl of lysate was transferred into a microplate well and mixed with 25 μl of β-galactosidase Assay Reagent, equilibrated to room temperature. The mixture was incubated at 37° C. for 30 min and absorbance measured at 405 nm.
as §3

CHO-GSK1SV = assay: Luciferase expression in normoxia vs 24 h hypoxia, transiently transfected CHO-GS suspension cells; type: cell-based, chinese hamster; conditions: for relative rank of promoter strength: transient CHO-GSK1SV, hypoxia; for inducibility after 24 hours in hypoxia (rank) / luciferase activity in normoxia: transient CHO_GS
Experimental: 40 ml of cells were grown in a 250 ml vented Erlenmeyer flask (Sigma-Aldrich CLS431144) at 37° C., 20% O2, 8% CO2 with agitation at 100 rpm. Cells were seeded as at 300,000 cells/ml.
as §1
On the day of transfection, the cells are seeded to 1,000,000 cells/ml in 500 μl of appropriate medium (Thermofisher, CD-CHO 10743029) in a 24 well plate. […] of DNA per well was then added to 10 μl of OptiMem medium (Thermofisher; 11058021) and incubated for 5 minutes at room temperature.
Concurrently, 0.625 μl of Freestyle Max reagent (Thermofisher, 16447100) was made up to 10 μl by addition of OptiMem and incubated for 5 minutes at room temperature. After this incubation, both mixes were added to the same tube and incubated at room temperature for 25-30 minutes. The DNA/Max reagent mix (20 μl/well) was then added directly to the cells and the cells incubated at 37 C, 8% CO2 with agitation at 100 rpm.
The transfected DNA was one of the vectors where the promoter constructs (RTV-015, HYBT, RTV-016, HV3C) or a control promoter (CMV-IE) were used to drive luciferase expression and β-galactosidase containing pcDNA6 plasmid. The β-galactosidase containing plasmid was used as internal control for transfection efficiency (Thermofisher, V22020).
as §4, with “chamber. Luciferase activity was measured as described above.” for “chamber.”

B1: RTV-015: synthetic hypoxia-inducible promoter, SEQ ID NO: 81; 5 HRE1 elements spaced by 40 bp and minimal promoter MP1 (nucleic acid)
DNA: ACGTGCGATGATGCGTAGCTAGTAGTGATGATGCGTAGCTAGTAGTACGTGCGATGATGCGTAGCTAGTAGTGATGATGCGTAGCTAGTAGTACGTGCGATGATGCGTAGCTAGTAGTGATGATGCGTAGCTAGTAGTACGTGCGATGATGCGTAGCTAGTAGTGATGATGCGTAGCTAGTAGTACGTGCTTGGTACCATCCGGGCCGGCCGCTTAAGCGACGCCTATAAAAAATAGGTTGCATGCTAGGCCTAGCGCTGCCAGTCCATCTTCGCTAGCCTGTGCTGCGTCAGTCCAGCGCTGCGCTGCGTAACGGCCGCC
modifications: Synp-RTV-015
notes: 5 HRE1 elements spaced by 40 bp and minimal promoter MP1
B1 was tested, and the “relative rank of promoter activity” value (HEK293-F) was “weakest”, the “inducibility after 24 hours in hypoxia (rank)” value (“inducibility after 24 hours” for short) (HEK293-T) was “lowest” and the “luciferase activity in normoxia” value (HEK293-T) was “almost no luciferase activity”. The “relative rank of promoter strength” value (HEK293-T) was “weakest”, the “relative rank of promoter strength” value (CHO-GSK1SV) was “weakest” and the “inducibility after 24 hours” value (CHO-GSK1SV) was “lowest”. For the same molecule, the “luciferase activity in normoxia” value (CHO-GSK1SV) was “almost no luciferase activity”.

B2: HV3C: synthetic hypoxia-inducible promoter, SEQ ID NO: 85/87; 4 HRE3 elements and CMV minimal promoter (nucleic acid)
DNA: GATCTTTGTATTTAATTAAGACCTTGAGTACGTGCGTCTCTGCACGTATGGCGATTAAGACCTTGAGTACGTGCGTCTCTGCACGTATGGCGATTAAGACCTTGAGTACGTGCGTCTCTGCACGTATGGCGATTAAGACCTTGAGTACGTGCGTCTCTGCACGTATGGCGATTAATCCATATGCAGGTCTATATAAGCAGAGCTCGTTTAGTGAACCGTCAGATCGCCTAGATACGCCATCCACGCTGTTTTGACCTCCATAGAAGATCGCCACC
modifications: Synp-HV3C
notes: 4 HRE3 elements and CMV minimal promoter
In the case of B2, the “relative rank of promoter activity” value (HEK293-F) is reported as “strongest”, the “inducibility after 24 hours” value (HEK293-T) is reported as “highest” and the “luciferase activity in normoxia” value (HEK293-T) is reported as “almost no luciferase activity”. For the same molecule, the “relative rank of promoter strength” value (HEK293-T) was “strongest”, the “relative rank of promoter strength” value (CHO-GSK1SV) was “strongest” and the “inducibility after 24 hours” value (CHO-GSK1SV) was “highest”. The “luciferase activity in normoxia” value (CHO-GSK1SV) was “almost no luciferase activity”.

— patent US20230167458A1, “FORSKOLIN-INDUCIBLE PROMOTERS AND HYPOXIA-INDUCIBLE PROMOTERS” (ASKLEPIOS BIOPHARMACEUTICAL, INC., priority 2020, published 2023)
